Measured values as given in patent US20250032632A1 (published 2025).
Positions count from the first letter of the chain named. Blank lines part the entries; values can stand above or below the binder they belong to.

How the values were obtained:
[1] = target: T1, human cMET-Fc fusion protein (extracellular domain of human cMET fused to human Fc) (human, UniProt P08581 25-932); assay: SPR, hMET-Fc
T1 construct: Mature cMET is cleaved into alpha and beta subunits; also called hMET-Fc; hMet-Fc

rat cMET-Fc = target: T2, rat cMET-Fc (rat, UniProt P97523 25-935); assay: SPR, rMET-Fc
T2 construct: Construct named only as rMET-Fc; also called rMET-Fc; not shown: Fc part

[2] = target: T1, human cMET-Fc fusion protein …; assay: SPR with hMet-Fc
[3] = target: mouse cMET (ELISA antigen) (mouse, UniProt P16056 25-931, limits assumed); assay: ELISA, cross-reactivity, mouse cMET
[4] = target: T3, Recombinant Human c-Met-10X His (human, UniProt P08581 25-932); assay: ELISA, plate-bound human cMET (FIGS. 17A, 17B)
T3 construct: In-house reagent (Lot #140924TA); not shown: 10X His tag
From the text: Relative binding strength is indicated by luminescence (y-axis).

rat cMET (ELISA antigen) = target: T4, rat cMET (ELISA antigen) (rat, UniProt P97523 25-935, limits assumed); assay: ELISA on rat cMET, relative to parental P3D12
T4 construct: also called rMET

[5] = target: T5, human cMET (ELISA antigen) (human, UniProt P08581 25-932, limits assumed); assay: ELISA on human cMET, relative to parental P3D12
T5 construct: also called hMET
T5 sequence (P08581 25-932 limits assumed): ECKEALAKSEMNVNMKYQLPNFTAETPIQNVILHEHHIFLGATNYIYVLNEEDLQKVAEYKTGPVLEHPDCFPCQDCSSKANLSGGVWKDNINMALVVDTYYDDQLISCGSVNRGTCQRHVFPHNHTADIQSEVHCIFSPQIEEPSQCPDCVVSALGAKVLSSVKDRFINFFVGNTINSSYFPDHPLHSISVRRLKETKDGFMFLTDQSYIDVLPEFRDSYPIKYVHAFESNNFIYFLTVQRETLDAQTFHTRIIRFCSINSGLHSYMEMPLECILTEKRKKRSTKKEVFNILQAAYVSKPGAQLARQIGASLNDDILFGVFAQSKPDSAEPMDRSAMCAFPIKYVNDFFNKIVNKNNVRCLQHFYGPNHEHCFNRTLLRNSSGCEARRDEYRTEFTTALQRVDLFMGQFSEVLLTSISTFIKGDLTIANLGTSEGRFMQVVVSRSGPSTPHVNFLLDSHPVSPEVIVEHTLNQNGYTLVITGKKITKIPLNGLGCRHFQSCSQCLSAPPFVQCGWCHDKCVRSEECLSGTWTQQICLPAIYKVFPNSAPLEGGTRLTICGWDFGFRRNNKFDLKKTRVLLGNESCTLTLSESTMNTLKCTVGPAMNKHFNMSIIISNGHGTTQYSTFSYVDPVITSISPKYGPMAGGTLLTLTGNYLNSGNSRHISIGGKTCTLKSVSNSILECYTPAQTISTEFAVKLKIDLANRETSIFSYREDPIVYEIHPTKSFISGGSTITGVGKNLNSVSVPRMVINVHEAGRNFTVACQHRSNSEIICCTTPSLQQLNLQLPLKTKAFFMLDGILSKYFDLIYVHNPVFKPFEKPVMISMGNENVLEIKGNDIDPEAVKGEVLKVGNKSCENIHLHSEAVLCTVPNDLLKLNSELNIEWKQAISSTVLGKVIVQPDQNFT

mouse cMET (ELISA antigen), sequence (P16056 25-931 limits assumed): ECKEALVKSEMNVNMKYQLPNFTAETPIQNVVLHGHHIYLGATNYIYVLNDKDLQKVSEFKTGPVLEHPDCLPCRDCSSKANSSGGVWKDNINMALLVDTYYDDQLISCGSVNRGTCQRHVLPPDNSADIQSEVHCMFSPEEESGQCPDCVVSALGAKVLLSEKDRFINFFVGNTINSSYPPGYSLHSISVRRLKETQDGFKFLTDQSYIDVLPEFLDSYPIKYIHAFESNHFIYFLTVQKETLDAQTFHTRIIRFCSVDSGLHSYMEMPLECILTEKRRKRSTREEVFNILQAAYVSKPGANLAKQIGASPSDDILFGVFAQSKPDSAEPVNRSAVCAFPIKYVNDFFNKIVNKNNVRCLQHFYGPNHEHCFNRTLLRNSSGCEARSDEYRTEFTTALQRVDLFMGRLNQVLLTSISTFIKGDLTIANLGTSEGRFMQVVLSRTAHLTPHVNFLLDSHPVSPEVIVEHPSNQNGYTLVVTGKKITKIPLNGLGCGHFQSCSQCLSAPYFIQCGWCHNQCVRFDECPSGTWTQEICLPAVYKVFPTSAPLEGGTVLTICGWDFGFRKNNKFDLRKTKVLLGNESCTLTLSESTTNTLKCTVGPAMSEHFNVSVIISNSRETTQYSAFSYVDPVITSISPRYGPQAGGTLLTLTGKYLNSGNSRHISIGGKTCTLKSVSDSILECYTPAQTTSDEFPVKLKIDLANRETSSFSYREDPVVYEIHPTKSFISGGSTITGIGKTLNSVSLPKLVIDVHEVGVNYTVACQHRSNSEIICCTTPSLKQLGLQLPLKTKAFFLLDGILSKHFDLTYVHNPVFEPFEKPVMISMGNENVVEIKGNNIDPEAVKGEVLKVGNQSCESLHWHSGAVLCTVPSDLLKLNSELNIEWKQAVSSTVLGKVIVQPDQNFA
T1 sequence (P08581 25-932): as the sequence (P08581 25-932 limits assumed) above
T3 sequence (P08581 25-932 limits assumed): as above
T2 sequence (P97523 25-935 limits assumed): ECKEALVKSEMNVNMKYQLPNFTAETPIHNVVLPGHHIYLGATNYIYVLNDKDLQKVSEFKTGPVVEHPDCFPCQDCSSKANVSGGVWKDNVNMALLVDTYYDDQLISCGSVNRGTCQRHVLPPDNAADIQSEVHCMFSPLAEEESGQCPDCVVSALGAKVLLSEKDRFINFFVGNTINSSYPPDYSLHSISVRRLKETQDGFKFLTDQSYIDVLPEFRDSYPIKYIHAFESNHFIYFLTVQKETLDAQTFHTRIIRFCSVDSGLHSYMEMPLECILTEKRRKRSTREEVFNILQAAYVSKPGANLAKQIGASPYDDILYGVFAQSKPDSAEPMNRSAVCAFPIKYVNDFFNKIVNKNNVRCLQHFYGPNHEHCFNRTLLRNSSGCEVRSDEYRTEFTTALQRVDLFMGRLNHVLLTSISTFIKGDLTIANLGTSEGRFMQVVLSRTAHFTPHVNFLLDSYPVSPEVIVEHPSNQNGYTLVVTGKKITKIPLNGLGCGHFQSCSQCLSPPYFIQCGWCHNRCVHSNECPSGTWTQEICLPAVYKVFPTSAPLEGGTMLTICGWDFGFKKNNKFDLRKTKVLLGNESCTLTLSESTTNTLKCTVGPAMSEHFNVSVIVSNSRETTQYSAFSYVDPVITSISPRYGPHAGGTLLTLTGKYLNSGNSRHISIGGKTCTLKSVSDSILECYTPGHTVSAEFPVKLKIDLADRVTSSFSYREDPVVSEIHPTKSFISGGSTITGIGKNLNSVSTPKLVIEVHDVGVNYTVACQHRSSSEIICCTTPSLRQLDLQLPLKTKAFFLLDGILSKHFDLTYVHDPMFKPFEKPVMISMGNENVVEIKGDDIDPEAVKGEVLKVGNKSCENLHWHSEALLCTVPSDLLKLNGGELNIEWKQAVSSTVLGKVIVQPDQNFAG
T4 sequence (P97523 25-935 limits assumed): as above

B1: F6B1P3D12 (mouse monoclonal anti-cMET antibody) (antibody, V domains shown)
VH: QVQLQQSGAELAKPGASVKMSCRASGYTFTSYWMHWVKQRPGQGLDWIGYIKPSTDNTEYNQKFKDKATLTADKSSSTAYMQLSSLTSEDSAVYYCARSYGNYPLMDYWGQGTSVTVSS
VL: QIVLTQSPAIMSASPGEKVTLTCSASSSVTSNYLYWYQQKPGSSPKLWIYSTSNLASGVPARFSGSGSGTSYSLTISSMEAEDAASYFCHQWSSYPPTFGSGTKLEIKR
notes: Mouse hybridoma antibody (ATCC PTA-125826); also called Mouse P3D12
Kd [1]: 0.9 nM
Kd (rat cMET-Fc): 16 nM
Kd [2]: 0.75 nM
binding result [3]: no binding

B2: Chimeric P3D12 (antibody, V domains shown)
VH: B1 VH
VL: B1 VL
notes: Mouse P3D12 variable regions with human constant regions
Kd [1]: 0.7 nM
Kd (rat cMET-Fc): 30 nM

B3: F6BP2D4 (antibody, V domains shown)
VH: B1 VH with R23K, D46E, K52N, N57Y, T58I, D73G, Y103F
VL: B1 VL with T30S, A61V
notes: Mouse monoclonal antibody
Kd [2]: 0.48 nM
binding result [3]: no binding

B4: F6B1P1E2 (antibody, V domains shown)
VH: B1 VH with R23K, D46E, K52N, N57Y, S77T, A97V
VL: B1 VL with T30S, Q38H, A61V
notes: Mouse monoclonal antibody
Kd [2]: 0.89 nM
binding result [3]: no binding

B10: G2ckc (humanized P3D12, VH-cdr + VL-cdr) (antibody, V domains shown)
VH: QVQLVQSGAEVKKPGASVKVSCKASGYTFTSYWMHWVKQAPGQGLDWIGYIKPSTDNTEYNQKFKDKATLTADKSTSTAYMELSSLRSEDTAVYYCARSYGNYPLMDYWGQGTTVTVSS
VL: QIVLTQSPATLSLSPGERATLSCSASSSVTSNYLYWYQQKPGSSPRLLIYSTSNLASGVPARFSGSGSGTSYTLTISRLEPEDFASYFCHQWSSYPPTFGSGTKLEIKR
notes: Humanized and isotype switched version of P3D12
Kd [1]: 0.9 nM
Kd (rat cMET-Fc): 31 nM
ELISA rMET vs parental (rat cMET (ELISA antigen)): 2 fold vs parental
ELISA hMET vs parental [5]: 1 fold vs parental

B11: G2fkf (humanized P3D12, VH-fra + VL-fra) (antibody, V domains shown)
VH: B10 VH with V5Q, A40R, K67R, A68V, E82Q, S85N, R87I, T114S
VL: B10 VL with T10I, R46K, R78S, P81A, F84A
notes: as for B10
Kd [1]: 0.4 nM
Kd (rat cMET-Fc): 30 nM
ELISA rMET vs parental (rat cMET (ELISA antigen)): 1.4 fold vs parental
ELISA hMET vs parental [5]: 1.7 fold vs parental

B12: G2fkv (humanized P3D12, VH-fra + VL-ven) (antibody, V domains shown)
VH: B10 VH with V5Q, A40R, K67R, A68V, E82Q, S85N, R87I, T114S
VL: B10 VL with L11M, L13A, A19V, L48W, L79M, F84A
notes: as for B10
ELISA rMET vs parental (rat cMET (ELISA antigen)): 1.2 fold vs parental
ELISA hMET vs parental [5]: 1.7 fold vs parental

B13: G2vka (humanized P3D12, VH-ven + VL-abb/sdr) (antibody, V domains shown)
VH: B10 VH with K12A, V20M, E82Q
VL: B10 VL with S24R, S27Q, S71D
notes: as for B10
ELISA rMET vs parental (rat cMET (ELISA antigen)): 2.7 fold vs parental
ELISA hMET vs parental [5]: 0.9 fold vs parental

The remaining lines, values ahead:

binding result [4]: binds
B5: hD12-II (Antibody hD12 attached to the payload of chemical formula II, stochastic conjugation) (antibody, human IgG2, kappa)
heavy: QVQLVQSGAEVKKPGASVKVSCKASGYTFTSYWMHWVKQAPGQGLDWIGYIKPSTDNTEYNQKFKDKATLTADKSTSTAYMELSSLRSEDTAVYYCARSYGNYPLMDYWGQGTTVTVSSASTKGPSVFPLAPCSRSTSESTAALGCLVKDYFPEPVTVSWNSGALTSGVHTFPAVLQSSGLYSLSSVVTVPSSNFGTQTYTCNVDHKPSNTKVDKTVERKCCVECPPCPAPPVAGPSVFLFPPKPKDTLMISRTPEVTCVVVDVSHEDPEVQFNWYVDGVEVHNAKTKPREEQFNSTFRVVSVLTVVHQDWLNGKEYKCKVSNKGLPAPIEKTISKTKGQPREPQVYTLPPSREEMTKNQVSLTCLVKGFYPSDIAVEWESNGQPENNYKTTPPMLDSDGSFFLYSKLTVDKSRWQQGNVFSCSVMHEALHNHYTQKSLSLSPGK
light: QIVLTQSPAILSLSPGERATLSCSASSSVTSNYLYWYQQKPGSSPKLLIYSTSNLASGVPARFSGSGSGTSYTLTISSLEAEDAASYFCHQWSSYPPTFGSGTKLEIKRTVAAPSVFIFPPSDEQLKSGTASVVCLLNNFYPREAKVQWKVDNALQSGNSQESVTEQDSKDSTYSLSSTLTLSKADYEKHKVYACEVTHQGLSSPVTKSFNRGEC
modifications: payload of chemical formula II on one or more cysteine residues of the antibody at random positions (chain not stated); payload of chemical formula II (pyrrolobenzodiazepine toxin + linking group, maleimide) on one or more cysteine residues of the antibody at random positions
notes: also called hD12-vc-II

binding result [4]: binds
B6: hD12-VI (Antibody hD12 attached to the payload of chemical formula VI, stochastic conjugation) (antibody, human IgG2, kappa)
heavy: B5 heavy
light: B5 light
modifications: payload of chemical formula VI on one or more cysteine residues of the antibody at random positions (chain not stated); payload of chemical formula VI (pyrrolobenzodiazepine toxin + linking group, maleimide) on one or more cysteine residues of the antibody at random positions
notes: Antibody-drug conjugate; also called hD12-vc-VI

binding result [4]: binds
B7: hD12-IV (Antibody hD12 attached to the payload of chemical formula IV, stochastic conjugation) (antibody, human IgG2, kappa)
heavy: B5 heavy
light: B5 light
modifications: payload of chemical formula IV on one or more cysteine residues of the antibody at random positions (chain not stated); payload of chemical formula IV (pyrrolobenzodiazepine toxin + linking group, maleimide) on one or more cysteine residues of the antibody at random positions
notes: Antibody-drug conjugate; also called hD12-vc-IV

binding result [4]: binds
B8: hD12-VII (Antibody hD12 attached to the payload of chemical formula VII, stochastic conjugation) (antibody, human IgG2, kappa)
heavy: B5 heavy
light: B5 light
modifications: payload of chemical formula VII on one or more cysteine residues of the antibody at random positions (chain not stated); payload of chemical formula VII (pyrrolobenzodiazepine toxin + linking group, maleimide) on one or more cysteine residues of the antibody at random positions
notes: Antibody-drug conjugate; also called hD12-vc-VII

binding result [4]: binds
B9: hD12-XI (Antibody hD12 attached to the payload of chemical formula XI, stochastic conjugation) (antibody, human IgG2, kappa)
heavy: B5 heavy
light: B5 light
modifications: payload of chemical formula XI on one or more cysteine residues of the antibody at random positions (chain not stated); payload of chemical formula XI (pyrrolobenzodiazepine toxin + linking group, maleimide) on one or more cysteine residues of the antibody at random positions
notes: Antibody-drug conjugate; also called hD12-vc-XI
